Source: the supplement of paper PMC9112550, “Optimization of the antimicrobial peptide Bac7 by deep mutational scanning” (BMC Biology, 2022)

System: Escherichia coli TOP10
Experiment: shrunken log2 fold change of peptide-encoding DNA abundance (4.5 h post-induction vs induction); higher = less antimicrobial activity (less host growth inhibition)
Conditions: time post-induction: 4.5 h; library: site-saturation at positions 5, 18, 19, 20
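Note: peptides expressed intracellularly from a pBAD plasmid library in pooled LB shake-flask culture, induced with 0.3% L-arabinose, DNA abundance read by NGS, three biological replicates, DESeq2 with apeglm shrinkage.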

In order of rising “shrunken log2 fold change” value:
1. RRIRCRPPRLPRPRPRPYNIPRP  -1.27
2. RRIRCRPPRLPRPRPRPYQAPRP  -1.11
3. RRIRCRPPRLPRPRPRPYMTPRP  -1.06
4. RRIRCRPPRLPRPRPRPYKHPRP  -1.04
5. RRIRCRPPRLPRPRPRPYHGPRP  -0.968
6. RRIRCRPPRLPRPRPRPYNWPRP  -0.917
7. RRIRCRPPRLPRPRPRPYNTPRP  -0.91
8. RRIRCRPPRLPRPRPRPWYMPRP  -0.838
9. RRIRCRPPRLPRPRPRPYSQPRP  -0.781
10. RRIRDRPPRLPRPRPRPFYTPRP  -0.687
11. RRIRCRPPRLPRPRPRPYCIPRP  -0.565
12. RRIRCRPPRLPRPRPRPWMVPRP  -0.559
13. RRIRCRPPRLPRPRPRPYAWPRP  -0.553
14. RRIRDRPPRLPRPRPRPCRWPRP  -0.537
15. RRIRCRPPRLPRPRPRPYNFPRP  -0.497
16. RRIRCRPPRLPRPRPRPWNVPRP  -0.476
17. RRIRDRPPRLPRPRPRPCNYPRP  -0.475
18. RRIRCRPPRLPRPRPRPYPHPRP  -0.438
19. RRIRDRPPRLPRPRPRPFTPPRP  -0.38
20. RRIRDRPPRLPRPRPRPFINPRP  -0.337
21. RRIRCRPPRLPRPRPRPWSAPRP  -0.308
22. RRIRDRPPRLPRPRPRPFIRPRP  -0.29
23. RRIRDRPPRLPRPRPRPDYTPRP  -0.276
24. RRIRDRPPRLPRPRPRPCYNPRP  -0.271
25. RRIRCRPPRLPRPRPRPWWCPRP  -0.248
26. RRIRDRPPRLPRPRPRPCIHPRP  -0.233
27. RRIRDRPPRLPRPRPRPCNMPRP  -0.225
28. RRIRDRPPRLPRPRPRPCNTPRP  -0.224
29. RRIRCRPPRLPRPRPRPWLSPRP  -0.215
30. RRIRCRPPRLPRPRPRPYRMPRP  -0.197
31. RRIRCRPPRLPRPRPRPWNRPRP  -0.162
32. RRIRDRPPRLPRPRPRPGCIPRP  -0.158
33. RRIRDRPPRLPRPRPRPAKMPRP  -0.156
34. RRIRDRPPRLPRPRPRPFQEPRP  -0.137
35. RRIRDRPPRLPRPRPRPCPRPRP  -0.126
36. RRIRCRPPRLPRPRPRPWLPPRP  -0.122
37. RRIRDRPPRLPRPRPRPDHKPRP  -0.119
38. RRIRDRPPRLPRPRPRPCYVPRP  -0.116
39. RRIRCRPPRLPRPRPRPYGRPRP  -0.114
40. RRIRDRPPRLPRPRPRPAMPPRP  -0.107
41. RRIRDRPPRLPRPRPRPCQYPRP  -0.0971
42. RRIRCRPPRLPRPRPRPYSYPRP  -0.0951
43. RRIRDRPPRLPRPRPRPAQYPRP  -0.0825
44. RRIRDRPPRLPRPRPRPDLHPRP  -0.0715
45. RRIRDRPPRLPRPRPRPANLPRP  -0.0687
46. RRIRDRPPRLPRPRPRPAYRPRP  -0.0687
47. RRIRDRPPRLPRPRPRPFLMPRP  -0.0685
48. RRIRDRPPRLPRPRPRPCMKPRP  -0.0664
49. RRIRDRPPRLPRPRPRPCHAPRP  -0.0662
50. RRIRDRPPRLPRPRPRPDKWPRP  -0.0651
51. RRIRCRPPRLPRPRPRPYACPRP  -0.0609
52. RRIRCRPPRLPRPRPRPYAEPRP  -0.0578
53. RRIRDRPPRLPRPRPRPEHYPRP  -0.0548
54. RRIRDRPPRLPRPRPRPADHPRP  -0.0509
55. RRIRDRPPRLPRPRPRPEQWPRP  -0.0491
56. RRIRCRPPRLPRPRPRPWQTPRP  -0.0433
57. RRIRCRPPRLPRPRPRPYNRPRP  -0.0425
58. RRIRDRPPRLPRPRPRPFNAPRP  -0.0419
59. RRIRDRPPRLPRPRPRPAISPRP  -0.0409
60. RRIRDRPPRLPRPRPRPEYPPRP  -0.0367
61. RRIRDRPPRLPRPRPRPAQAPRP  -0.0288
62. RRIRCRPPRLPRPRPRPWYLPRP  -0.0282
63. RRIRDRPPRLPRPRPRPDRNPRP  -0.0216
64. RRIRCRPPRLPRPRPRPYEWPRP  -0.0207
65. RRIRCRPPRLPRPRPRPWVAPRP  -0.0206
66. RRIRDRPPRLPRPRPRPCYYPRP  -0.0165
67. RRIRDRPPRLPRPRPRPCKAPRP  -0.0139
68. RRIRDRPPRLPRPRPRPFTYPRP  -0.0134
69. RRIRCRPPRLPRPRPRPWKMPRP  -0.0124
70. RRIRDRPPRLPRPRPRPDKEPRP  -0.0124
71. RRIRDRPPRLPRPRPRPDGEPRP  -0.0121
72. RRIRCRPPRLPRPRPRPYEDPRP  -0.01
73. RRIRDRPPRLPRPRPRPEHRPRP  -0.01
74. RRIRDRPPRLPRPRPRPDVSPRP  -0.00965
75. RRIRDRPPRLPRPRPRPDSFPRP  -0.00691
76. RRIRDRPPRLPRPRPRPDQKPRP  -0.0052
77. RRIRDRPPRLPRPRPRPEKWPRP  -0.00325
78. RRIRDRPPRLPRPRPRPDEEPRP  -0.00164
79. RRIRDRPPRLPRPRPRPDMKPRP  -0.00136
80. RRIRDRPPRLPRPRPRPDVIPRP  0.00273
81. RRIRCRPPRLPRPRPRPYDSPRP  0.00489
82. RRIRDRPPRLPRPRPRPFQCPRP  0.00675
83. RRIRDRPPRLPRPRPRPESMPRP  0.0145
84. RRIRDRPPRLPRPRPRPDYAPRP  0.016
85. RRIRDRPPRLPRPRPRPEGCPRP  0.0171
86. RRIRDRPPRLPRPRPRPFWRPRP  0.0187
87. RRIRDRPPRLPRPRPRPEICPRP  0.023
88. RRIRDRPPRLPRPRPRPDKFPRP  0.0288
89. RRIRDRPPRLPRPRPRPECSPRP  0.0314
90. RRIRDRPPRLPRPRPRPFFMPRP  0.033
91. RRIRDRPPRLPRPRPRPAHTPRP  0.0343
92. RRIRDRPPRLPRPRPRPCSKPRP  0.0354
93. RRIRDRPPRLPRPRPRPAVVPRP  0.0373
94. RRIRDRPPRLPRPRPRPAKFPRP  0.0399
95. RRIRDRPPRLPRPRPRPEGLPRP  0.0425
96. RRIRDRPPRLPRPRPRPFHMPRP  0.0426
97. RRIRDRPPRLPRPRPRPCNVPRP  0.0436
98. RRIRDRPPRLPRPRPRPEHMPRP  0.05
99. RRIRDRPPRLPRPRPRPEWIPRP  0.0504
100. RRIRDRPPRLPRPRPRPDVQPRP  0.0508
101. RRIRDRPPRLPRPRPRPEWQPRP  0.0508
102. RRIRDRPPRLPRPRPRPCWPPRP  0.073
103. RRIRDRPPRLPRPRPRPEIIPRP  0.0753
104. RRIRDRPPRLPRPRPRPARYPRP  0.0754
105. RRIRDRPPRLPRPRPRPEQRPRP  0.0765
106. RRIRDRPPRLPRPRPRPALRPRP  0.0869
107. RRIRDRPPRLPRPRPRPCGDPRP  0.0915
108. RRIRDRPPRLPRPRPRPDFLPRP  0.136
109. RRIRCRPPRLPRPRPRPWRFPRP  0.145
110. RRIRDRPPRLPRPRPRPDANPRP  0.163
111. RRIRDRPPRLPRPRPRPDPVPRP  0.203
112. RRIRDRPPRLPRPRPRPEQYPRP  0.215
113. RRIRDRPPRLPRPRPRPEKAPRP  0.236
114. RRIRDRPPRLPRPRPRPAFGPRP  0.238
115. RRIRDRPPRLPRPRPRPDVHPRP  0.244
116. RRIRDRPPRLPRPRPRPATGPRP  0.312
117. RRIRDRPPRLPRPRPRPARNPRP  0.316
118. RRIRDRPPRLPRPRPRPATKPRP  0.318
119. RRIRDRPPRLPRPRPRPCMTPRP  0.33
120. RRIRDRPPRLPRPRPRPCRHPRP  0.344
121. RRIRDRPPRLPRPRPRPCWDPRP  0.392
122. RRIRDRPPRLPRPRPRPENDPRP  0.41
123. RRIRDRPPRLPRPRPRPDEYPRP  0.436
124. RRIRDRPPRLPRPRPRPARCPRP  0.446
125. RRIRDRPPRLPRPRPRPETLPRP  0.452
126. RRIRDRPPRLPRPRPRPALYPRP  0.468
127. RRIRDRPPRLPRPRPRPFFWPRP  0.504
128. RRIRDRPPRLPRPRPRPDVWPRP  0.511
129. RRIRDRPPRLPRPRPRPAARPRP  0.518
130. RRIRDRPPRLPRPRPRPFVWPRP  0.525
131. RRIRDRPPRLPRPRPRPDIKPRP  0.543
132. RRIRDRPPRLPRPRPRPEWNPRP  0.546
133. RRIRDRPPRLPRPRPRPARPPRP  0.569
134. RRIRDRPPRLPRPRPRPEGYPRP  0.585
135. RRIRDRPPRLPRPRPRPFCAPRP  0.652
136. RRIRDRPPRLPRPRPRPAPCPRP  0.658
137. RRIRDRPPRLPRPRPRPACGPRP  0.684
138. RRIRDRPPRLPRPRPRPEIQPRP  0.7
139. RRIRDRPPRLPRPRPRPEWMPRP  0.764
140. RRIRDRPPRLPRPRPRPARGPRP  0.793
141. RRIRDRPPRLPRPRPRPAWQPRP  0.861
142. RRIRDRPPRLPRPRPRPCCEPRP  0.961
143. RRIRDRPPRLPRPRPRPACPPRP  0.962
144. RRIRDRPPRLPRPRPRPCVGPRP  0.97
145. RRIRDRPPRLPRPRPRPAPQPRP  0.983
146. RRIRDRPPRLPRPRPRPERWPRP  1.3
147. RRIRDRPPRLPRPRPRPAAMPRP  1.32
148. RRIRDRPPRLPRPRPRPECFPRP  1.46
149. RRIRDRPPRLPRPRPRPEAEPRP  1.67
150. RRIRDRPPRLPRPRPRPECWPRP  1.84
